Source: paper PMC7386315

Assays:
[1] = system: MoCdc5-DBD (Magnaporthe oryzae P131); test: BLI
[2] = system: AtCdc5-DBD (Arabidopsis thaliana); test: BLI

Row | Substance | Kd [1] | Kd [2]
1 | U6 RNA | 1.38 10^-8 M | –
2 | MIR167a | 5.17 10^-8 M | 8.98 10^-8 M
